In PMC5372565, “Proline Residues as Switches in Conformational Changes Leading to Amyloid Fibril Formation” (International Journal of Molecular Sciences, 2017):
Values joined by “and” are separate entries in the source; they are usually repeats but may differ in a detail not shown here. Equal values may be shown once.

Key:
P04080 [1] = test: SEC; Y31 variant and its mutants; conditions not told for this experiment
[2] = biological target: stefin B-Y31 P79S mutant (human) (UniProt P04080); test: as above
[3] = biological target: the molecule itself; test: SEC; Superdex 75 FPLC column, 0.5 mL/min, typically 100 uL of 50 uM protein, 10 mM potassium phosphate pH 7.0, 0.15 M NaCl; samples frozen and unfrozen once; percentages estimated from the surface area of the peaks
P04080 [4] = test: as above
[5] = biological target: the molecule itself; test: SEC; Y31 variant and its mutants; conditions not told for this experiment
P04080 [6] = test: as above; remark: listed apart in the source

Question: With stefin B-Y31 P79S mutant as the molecule, how does the “percent dimers (SEC)” value (P04080 [1]) read?
Answer: 100% were dimeric

Question: For “stefin B-Y31 P79S mutant (from UniProt P04080 4-98) (natural protein)”, which stoichiometry N [2] is on record?
Answer: 2

B1: stefin B P79S mutant (of the wt C3S E31-stefin B) (natural protein, human, UniProt P04080 1-98, looked up)
chain: MMSGAPSATQPATAETQHIADQVRSQLEEKENKKFPVFKAVSFKSQVVAGTNYFIKVHVGDEDFVHLRVFQSLPHENKSLTLSNYQTNKAKHDELTYF
notes: human stefin B (cystatin B), 98 amino acids, E31 variant, C3S, with P79S
Question: With B1 as the molecule, how does the “stoichiometry N” value [3] read?
Answer: 4 and 2

Question: And the “percent dimers (SEC peak area)” value (P04080 [4])?
Answer: 55% dimers

Question: And the “percent higher molecular weight species (SEC peak area)” value (P04080 [4])?
Answer: 15% of higher molecular weight species

Question: And the “percent tetramers (SEC peak area)” value (P04080 [4])?
Answer: around 30% tetramers

B2: stefin B P74S mutant (of the wt C3S E31-stefin B) (protein)
chain: MMSGAPSATQPATAETQHIADQVRSQLEEKENKKFPVFKAVSFKSQVVAGTNYFIKVHVGDEDFVHLRVFQSLSHENKPLTLSNYQTNKAKHDELTYF
Question: B2 was tested. Which “percent oligomers (SEC)” value (P04080 [4]) did it give?
Answer: The tendency to form oligomers is high for the P74S mutant of the wt (>50%)

B3: stefin B-Y31 variant (with Y at site 31) (natural protein, human, UniProt P04080 1-98, looked up)
chain: MMSGAPSATQPATAETQHIADQVRSQLEEKYNKKFPVFKAVSFKSQVVAGTNYFIKVHVGDEDFVHLRVFQSLPHENKPLTLSNYQTNKAKHDELTYF
notes: human stefin B (cystatin B), 98 amino acids, variant with Y at site 31; Cys 3 changed to Ser 'for all in vitro studies'
Question: What does the source list for B3?
Answer: stoichiometry N [5]: 2; percent monomers (SEC) (P04080 [6]): 70% and 75% of molecules were monomers, respectively and the rest were dimers

B4: stefin B-Y31 P36G mutant (natural protein, human, UniProt P04080 1-98, looked up)
chain: MMSGAPSATQPATAETQHIADQVRSQLEEKYNKKFGVFKAVSFKSQVVAGTNYFIKVHVGDEDFVHLRVFQSLPHENKPLTLSNYQTNKAKHDELTYF
notes: human stefin B (cystatin B), 98 amino acids, variant with Y at site 31, with P36G; Cys 3 changed to Ser 'for all in vitro studies'
Question: For B4, which “stoichiometry N” value [5] is on record?
Answer: 2

Question: And the “percent monomers (SEC)” value (P04080 [6])?
Answer: 70% and 75% of molecules were monomers, respectively and the rest were dimers

B5: wild-type like C3S E31-stefin B (human) (natural protein, UniProt P04080 1-98, looked up)
chain: MMSGAPSATQPATAETQHIADQVRSQLEEKENKKFPVFKAVSFKSQVVAGTNYFIKVHVGDEDFVHLRVFQSLPHENKPLTLSNYQTNKAKHDELTYF
notes: human stefin B (cystatin B), 98 amino acids, E31 variant, Cys 3 changed to Ser; also called wt stefin B; wt
Question: With B5 as the molecule, how does the “stoichiometry N” value [3] read?
Answer: 2 and 4

Question: What about the “percent dimers (SEC peak area)” value (P04080 [4]) of the same molecule?
Answer: 65% dimers

Question: What about the “percent higher oligomers (SEC peak area)” value (P04080 [4]) of the same molecule?
Answer: 10% of higher oligomers

Question: And the “percent monomers (SEC peak area)” value (P04080 [4])?
Answer: 5% monomers

Question: What about the “percent tetramers (SEC peak area)” value (P04080 [4]) of the same molecule?
Answer: 20% tetramers

B6: stefin B P11S mutant (of the wt C3S E31-stefin B) (natural protein, human, UniProt P04080 1-98, looked up)
chain: MMSGAPSATQSATAETQHIADQVRSQLEEKENKKFPVFKAVSFKSQVVAGTNYFIKVHVGDEDFVHLRVFQSLPHENKPLTLSNYQTNKAKHDELTYF
notes: human stefin B (cystatin B), 98 amino acids, E31 variant, C3S, with P11S
Question: Does B6 bind [3]?
Answer: binds

B7: stefin B P36D mutant (of the wt C3S E31-stefin B) (natural protein, human, UniProt P04080 1-98, looked up)
chain: MMSGAPSATQPATAETQHIADQVRSQLEEKENKKFDVFKAVSFKSQVVAGTNYFIKVHVGDEDFVHLRVFQSLPHENKPLTLSNYQTNKAKHDELTYF
notes: human stefin B (cystatin B), 98 amino acids, E31 variant, C3S, with P36D
Question: For B7, which “stoichiometry N” value [3] is on record?
Answer: 2 and 4

B8: stefin B P6L mutant (of the wt C3S E31-stefin B) (natural protein, human, UniProt P04080 1-98, looked up)
chain: MMSGALSATQPATAETQHIADQVRSQLEEKENKKFPVFKAVSFKSQVVAGTNYFIKVHVGDEDFVHLRVFQSLPHENKPLTLSNYQTNKAKHDELTYF
notes: human stefin B (cystatin B), 98 amino acids, E31 variant, C3S, with P6L
Question: Does B8 bind [3]?
Answer: binds
